Measurements published in US20220340684A1.

What was measured:
[1] = target: Recombinant human TRIM21 PRYSPRY domain (His-tagged, expressed in E. coli BL21 (DE3)) (human) (UniProt P19474); assay: SPR (ProteON XPR36), antibody amine-coupled to GLC chip, TRIM21 PRYSPRY as analyte, Langmuir 1:1
[2] = target: Recombinant human TRIM21 PRYSPRY domain (His-tagged, expressed in E. coli BL21 (DE3)) (human) (UniProt P19474); assay: SPR, antibody immobilized, TRIM21 PRYSPRY as analyte
[3] = target: Recombinant human TRIM21 PRYSPRY domain (His-tagged, expressed in E. coli BL21 (DE3)) (human) (UniProt P19474); assay: SPR, antibody immobilized, TRIM21 PRYSPRY as analyte; the column's head prints (M), the text gives 125 nM
[4] = target: Human TRIM21 (endogenous, cytosolic, in moDC and HeLa cells) (human) (UniProt P19474); assay: cell-based or functional assay
Sequence of Human TRIM21 (endogenous, cytosolic, in moDC and HeLa cells) (human) (P19474 whole entry): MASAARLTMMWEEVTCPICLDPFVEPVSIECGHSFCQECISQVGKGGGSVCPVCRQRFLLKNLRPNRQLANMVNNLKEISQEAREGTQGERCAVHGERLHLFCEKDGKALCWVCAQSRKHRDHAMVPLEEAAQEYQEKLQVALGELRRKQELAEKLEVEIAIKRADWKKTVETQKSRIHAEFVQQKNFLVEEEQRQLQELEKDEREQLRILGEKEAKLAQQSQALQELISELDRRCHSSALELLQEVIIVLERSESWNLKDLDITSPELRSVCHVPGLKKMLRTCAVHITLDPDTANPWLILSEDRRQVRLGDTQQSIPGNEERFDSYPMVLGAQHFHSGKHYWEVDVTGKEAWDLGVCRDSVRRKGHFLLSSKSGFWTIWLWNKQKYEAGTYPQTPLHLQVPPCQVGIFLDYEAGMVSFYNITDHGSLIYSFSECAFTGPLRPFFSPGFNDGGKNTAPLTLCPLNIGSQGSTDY

Sequence of Recombinant human TRIM21 PRYSPRY domain (His-tagged, expressed in E. coli BL21 (DE3)) (human) (P19474 287-475): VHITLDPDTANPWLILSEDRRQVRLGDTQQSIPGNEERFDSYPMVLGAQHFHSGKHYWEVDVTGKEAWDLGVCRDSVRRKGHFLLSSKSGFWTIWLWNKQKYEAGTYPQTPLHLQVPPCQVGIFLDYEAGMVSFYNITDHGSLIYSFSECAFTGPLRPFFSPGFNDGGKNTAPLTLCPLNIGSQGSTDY

Substance | Kd [2] | other results
Fc-unmodified human IgG1 (anti-DEC205, variable domains of 3G9-2D2, wildtype human IgG1 constant regions) (antibody) |  | Kd [1]: 47.3 nM
V1 chimeric IgG1 (9C12 variable domains, human IgG1 with 256P/434R/436F/440I Fc) (antibody) | 10.8 nM | 
V2 chimeric IgG1 (9C12 variable domains, human IgG1 with 256P/433T/436F/440I Fc) (antibody) | 1620 nM | 
V3 chimeric IgG1 (9C12 variable domains, human IgG1 with 256P/433T/434R/440I Fc) (antibody) | 0.211 nM | 
V4 chimeric IgG1 (9C12 variable domains, human IgG1 with 256P/433T/434R/436F Fc) (antibody) | 0.276 nM | 
V5 chimeric IgG1 (9C12 variable domains, human IgG1 with 433T/434R/436F/440I Fc, Thr at 256) (antibody) | 23.5 nM | 
Wildtype chimeric IgG1 (anti-Ad5 hexon, mouse 9C12 variable domains, wildtype human IgG1 constant regions) (antibody) |  | Kd [3]: 125 nM; IC50 of ADIN of Ad5-eGFP infection in moDCs, MOI 400 [4]: 3 nM; IC50 of antibody-dependent intracellular neutralization (ADIN) of Ad5-eGFP infection in HeLa cells, MOI 1.2 [4]: 900 nM
